The assay addresses human CD33 (human) (UniProt P20138). Briefly: cell-based or functional assay.
Chain of UniProt P20138 (P20138 18-364 limits assumed): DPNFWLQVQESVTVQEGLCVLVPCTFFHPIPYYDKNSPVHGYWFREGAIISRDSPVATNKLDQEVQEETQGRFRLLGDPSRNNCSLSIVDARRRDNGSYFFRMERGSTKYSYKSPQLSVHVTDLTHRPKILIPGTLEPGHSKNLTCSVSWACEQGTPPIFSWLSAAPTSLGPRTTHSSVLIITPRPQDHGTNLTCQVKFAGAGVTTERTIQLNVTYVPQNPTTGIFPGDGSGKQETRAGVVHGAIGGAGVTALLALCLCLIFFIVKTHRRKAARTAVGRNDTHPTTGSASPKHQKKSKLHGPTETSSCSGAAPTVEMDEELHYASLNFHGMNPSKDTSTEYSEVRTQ

“Lintuzumab conjugated with Actinium-225 (Ac225) (antibody)” yielded an LD50 (dose at which 50% of the cells were killed), cytotoxicity on HL60 leukemia cell suspensions of 8 pCi per mL.

The record behind these values is patent US20220008570A1.
